Source: the supplement of paper PMC7125110
± gives the standard error. For part of these data: Fewer inactive variants are shown than the library holds.

B1: glmS ribozyme (parent)
chain: AUAAAAGCGCCAGAACUACAGAAAUGUAGUUGACGAGGAGGAGGUUUAUCGAAUUUUCGGCGGAUGCCUCCAAA

Experiments:
Conditions in all cases: with glucosamine-6-phosphate
glucosamine-6-phosphate [1] = variants of: B1; experiment: kcat; higher = faster cleavage; RNA array
Method in brief: (§1)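 Barcoded ribozyme variants on sequenced MiSeq chips were transcribed in situ by E. coli RNA polymerase and followed at 37 °C through a hybridised Cy3 probe. Glucosamine-6-phosphate at 40 μM to 10 mM in HEPES/KCl/Mg(OAc)2 buffer was flowed in, and tiles were imaged over ~14 h. Signals were normalised to baseline and to non-cleaving reference variants, and per-tile medians were fit to one- or two-exponential decays to give kobs. Weighted Michaelis–Menten fits across concentrations gave kcat and KM.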

glucosamine-6-phosphate [2] = variants of: B1; experiment: self-cleavage kobs at 40 uM GlcN6P; higher = faster cleavage; RNA array
Method in brief: as §1

glucosamine-6-phosphate [3] = variants of: B1; experiment: self-cleavage kobs at 160 uM GlcN6P; higher = faster cleavage; RNA array
Method in brief: as §1

glucosamine-6-phosphate [4] = variants of: B1; experiment: self-cleavage kobs at 640 uM GlcN6P; higher = faster cleavage; RNA array
Method in brief: as §1

glucosamine-6-phosphate [5] = variants of: B1; experiment: self-cleavage kobs at 2500 uM GlcN6P; higher = faster cleavage; RNA array
Method in brief: as §1

glucosamine-6-phosphate [6] = variants of: B1; experiment: self-cleavage kobs at 10000 uM GlcN6P; higher = faster cleavage; RNA array
Method in brief: as §1

glucosamine-6-phosphate [7] = variants of: B1; experiment: KM; higher = weaker cofactor use; RNA array
Method in brief: as §1

Variant | kcat (glucosamine-6-phosphate [1]) [s⁻¹] | self-cleavage kobs at 40 uM GlcN6P (glucosamine-6-phosphate [2]) [s⁻¹] | self-cleavage kobs at 160 uM GlcN6P (glucosamine-6-phosphate [3]) [s⁻¹] | self-cleavage kobs at 640 uM GlcN6P (glucosamine-6-phosphate [4]) [s⁻¹] | self-cleavage kobs at 2500 uM GlcN6P (glucosamine-6-phosphate [5]) [s⁻¹] | self-cleavage kobs at 10000 uM GlcN6P (glucosamine-6-phosphate [6]) [s⁻¹] | KM (glucosamine-6-phosphate [7]) [µM]
AUAAAAGCGCCAGAACUACAGAAAUGUAGUUGACGAGGAGGAGGUUUAUCAAAUUUUCGGCGGAUGCCUCUAAA [G51A C71U] | < 1e-05 | < 1e-05 | – | – | – | – | –
AUAAAAGCGCCAGAACUACAGAAAUGUAGUUGACGAGGAGGAGGUUUAUCGAAUUUUCGACGGAUGGCUCCAAA [G60A C67G] | 1.56e-05 ± 2e-06 | – | – | – | – | – | –
AUAAAAGCGCCAGAACUACAGAAAUGUAGUUGACGAGGAGGAGGUUUAUCGAAUAUUCGGCGGAUUCCUCCAAA [U55A G66U] | 0.00223 ± 0.00093 | 7.9e-05 ± 1.3e-05 | 0.000202 ± 5.4e-05 | 0.000355 ± 7.1e-05 | 0.00136 ± 0.00021 | 0.00195 ± 0.00029 | –
AUAAAAGCGCCAGAACUACAGAAAUGUAGUUGACGAGGAGGAGGGUUAUCGAAUUUUCGGCGGAUUCCUCCAAA [U45G G66U] | 0.0036 ± 0.00029 | 3.62e-05 ± 1.2e-05 | 0.00012 ± 2.8e-05 | 0.00042 ± 7.6e-05 | 0.0014 ± 0.00027 | 0.00245 ± 0.00032 | 4540 ± 530
AUAAAAGCGCCAGAACUACAGAAAUGUAGUUGACGAGUAGGAGGUUUAUCGAAUUUUCCGCGGAUGCCGCCAAA [G38U G59C U69G] | 4.16e-05 ± 1.3e-05 | – | – | – | – | – | –
AUAAAAGCGCCAGAACUACAGAAAUGUAGUUGACGAGGAGGAGGUUUAACGAAUUUUCGGCGGAUGCCUCCAAA [U49A] | 2.06e-05 ± 1.8e-06 | < 1e-05 | – | – | 2.11e-05 ± 3e-06 | 1.9e-05 ± 1.6e-06 | –
AUAAAAGCGCCAGAACUACAGAAAUGUAGUUGACGAGGAGGAGGUUUAGCGAAUUUUCGGCGGAUGCCUCCAAA [U49G] | 0.00147 ± 0.00022 | 2.57e-05 ± 1.3e-06 | 7.59e-05 ± 2.5e-06 | 0.000258 ± 7.3e-06 | 0.000807 ± 4.3e-05 | 0.00113 ± 4.5e-05 | 2840 ± 550
AUAAAAGCGCCAGAACUACAGAAAUGUAGUUGACGAGGAGGAGGUUUAUCGUAUUUUCGGCGGAUGCCGCCAAA [A52U U69G] | 2.57e-05 ± 7.6e-06 | – | 4.23e-05 ± 1.1e-05 | 3.97e-05 ± 1e-05 | 2.11e-05 ± 7.8e-06 | – | –
AUAAAAGCGCCAGAACUACAGAAAUGUAGUUGACGAAGAGGAGUUUUAUCGAAUUUUCGGCGGAUGCCUCCAAA [G37A G44U] | 8.09e-05 ± 2.1e-05 | – | < 1e-05 | – | 4.71e-05 ± 9.1e-06 | 5.95e-05 ± 2.3e-05 | –
AUAAAAGCGCUAGAUCUACAGAAAUGUAGUUGACGAGGAGGAGGUUUAUCGAAUUUUCGGCGGAUGCCUCCAAA [C11U A15U] | 0.000594 ± 3.8e-05 | – | 4.54e-05 ± 1.7e-05 | 0.000178 ± 2.4e-05 | 0.000375 ± 5.4e-05 | 0.000511 ± 4.5e-05 | 1540 ± 230
